The target in experiment [1] is T1, biotinylated avi-tagged canine PD-1 soluble protein (canine, biotin).
T1 chain: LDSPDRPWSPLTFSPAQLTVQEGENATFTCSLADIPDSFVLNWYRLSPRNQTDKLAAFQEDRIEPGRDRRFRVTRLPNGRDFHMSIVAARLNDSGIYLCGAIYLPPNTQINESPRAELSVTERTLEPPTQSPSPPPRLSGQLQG
The experiment can be described thus: ELISA. (An ELISA detects its analyte on a solid surface through an enzyme-linked reagent.)

Experiment [2] deals with canine PD-1 expressed on the surface of KTδ32 cells (Canis lupus familiaris, UniProt A0A090BAM7). The experiment can be described thus: flow cytometry on cells.
The target of experiment [3] is recombinant canine PD-1 protein, His tag (Canis lupus familiaris, UniProt A0A090BAM7). The experiment can be described thus: SPR. For orientation: In SPR one partner is held on a chip, and binding of the other changes the refractive index at the surface.

B1: P4B1 soluble scFv (scFv, V domains shown)
VH: EVQLVQSGGDVVKPGGSLRLSCVASGFTFNTYGMNWVRQSPGKGLQWVAAIANSGSTYYADAVRGRFTISRDNAKNTLYLQMNSLRAEDAAIYYCASGIWGDWFYYWGQGTLVTVSS
VL: SSVLTQPPSVSVSLGQTATISCSGESLTKYYAQWFQQKPGQAPMLVIYKDTERPSGIPDRFSGSSSGNTHTLTISGARAEDEADYYCESAVSADAVVFGGGTHLTVL
Regarding B1, the binding result in experiment [1] is reported as “binds”.

B2: P3C6 soluble scFv (scFv, V domains shown)
VH: EVQLVQSGGDLVKPGGSLRLSCMASGFTFSKYGMSWVRQSPGKGLQWVADIAANGGTYYTDAVKGRFTISRDNAKNALYLQMDDLRAEDTAVYYCARWGGAPFDYWGQGTLVTVSS
VL: EIVMTQSPASLSLSQEEKVTITCRASQSVSSYLAWYQQKPGQAPKLLIYGTSNRATGVPSRFSGSGSGTDFSFTISSLEPEDVAVYYCQQGLQYPITFGKGTHLEIK
For the molecule B2, the binding result in experiment [1] and in experiment [2] was “binds” each time.

B3: P3C6mut3.2 full-length canine IgGD (antibody, V domains shown)
VH: EVQLVQSGGDVVKPGGSLRLSCVASGFTFSKYGMSWVRQSPGKGLQWVADIAANGGTYYTDAVKGRFTISRDNAKNTLYLQMNSLRAEDTAVYYCARWGGAPFDYWGQGTLVTVSS
VL: EIVMTQSPASLSLSQEEKVTITCRASQSVSSYLAWYQQKPGQAPKLLIYGTSNRATGVPSRFSGSGSGTDFSFTISSLEPEDVAVYYCQQGLQYPITFGKGTHLEIK
Consider B3, for which the binding result in experiment [2] is listed as “binds”.

B4: P3C6mut3.1 full-length canine IgGD (antibody, V domains shown)
VH: EVQLVQSGGDVVKPGGSLRLSCMASGFTFSKYGMSWVRQSPGKGLQWVADIAANGGTYYTDAVKGRFTISRDNAKNTLYLQMNSLRAEDTAVYYCARWGGAPFDYWGQGTLVTVSS
VL: EIVMTQSPASLSLSQEEKVTITCRASQSVSSYLAWYQQKPGQAPKLLIYGTSNRATGVPSRFSGSGSGTDFSFTISSLEPEDVAVYYCQQGLQYPITFGKGTHLEIK
For the molecule B4, in experiment [3], the binding half-life turned out to be 1.35 h; the off-rate (koff) (as a rule, a measure of how fast the partners let go of each other) worked out at 0.000143 s⁻¹; the on-rate (kon) (in general, a measure of how fast the partners come together) was 131000 M⁻¹ s⁻¹.

The record behind these values is PMC10793675 (mAbs, 2023).
